± gives the uncertainty stated by the source.
Assay: self-splicing fitness, log relative to wild type (ln ratio); higher = more splicing; Tetrahymena group I intron in knt gene, E. coli kanamycin selection, DiMSum; sequences stand for … in CUCUCU…GGAGGGAAAAGUUAUCAGGCAUGCACCUGGUAGCUAGUCUUUAAACCAAUAGAUUGCAUCGGUUUAAAAGGCAAGACCGUCAAAUUGCGGGAAAGGGGUCAACAGCCGUUCAGUACCAAGUCUCAGGGGAAACUUUGAGAUGGCCUUGCAAAGGGUAUGGUAAUAAGCUGACGGACAUGGUCCUAACCACGCAGCCAAGUCCUAAGUCAACAGAUCUUCUGUUGAUAUGGAUGCAGUUCACAGACUAAAUGUCGGUCGGGGAAGAUGUAUUCUUCUCAUAAGAUAUAGUCGGACCUCUCCUUAAUGGGAGCUAGCGGAUGAAGUGAUGCAACACUGGAGCCGCUGGGAACUAAUUUGUAUGCGAAAGUAUAUUGAUUAGUUUUGGAGUACUCGUGGUCG
Outline: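 Six replicate transformations of E. coli BL21(DE3) with a pET-22b(+) library were grown overnight at 37°C or 30°C. The library randomised all eight P1ex-region intron nucleotides, the intron lying in the knt kanamycin-resistance gene, and plates were LB agar with or without 25 μg/mL kanamycin plus 100 μg/mL carbenicillin, 50 μM IPTG and 0.2% rhamnose. Pooled colonies were amplicon-sequenced on an Illumina HiSeq 2500, and fitness is the DiMSum error-weighted combination of wild-type-normalised replicate fold changes, kanamycin versus none.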

Sequence | self-splicing fitness (ln) (30 °C) | self-splicing fitness (ln) (37 °C)
UAAGAGCAAUAUUACGUCGG | -3.8 ± 0.29 | -2.25 ± 0.27
CUGGAGCAAUAUUACGUUUA | -3.17 ± 0.18 | -3.28 ± 0.22
UAUUAGCAAUAUUACGCGUU | -3.05 ± 0.19 | -0.613 ± 0.15
AUUUAGCAAUAUUACGAACU | 0.198 ± 0.13 | 0.211 ± 0.14
UGGAAGCAAUAUUACGGACA | -1.03 ± 0.13 | -0.0422 ± 0.11
GAUAAGCAAUAUUACGUAAU | -1.78 ± 0.073 | -0.923 ± 0.1
ACUAAGCAAUAUUACGAGAC | -2.89 ± 0.28 | -3.24 ± 0.35
CCCGAGCAAUAUUACGGGAA | -4.33 ± 0.29 | -2.39 ± 0.14
AACAAGCAAUAUUACGGCCC | -0.249 ± 0.12 | -0.0486 ± 0.2
AUAAAGCAAUAUUACGGGAA | -1.08 ± 0.097 | -0.426 ± 0.14
ACUGAGCAAUAUUACGCGAU | -3.36 ± 0.25 | -1.71 ± 0.14
GCGUAGCAAUAUUACGUGUC | -3.83 ± 0.27 | -2.06 ± 0.14
AUCCAGCAAUAUUACGAGAU | -3.77 ± 0.2 | -2.22 ± 0.19
ACUCAGCAAUAUUACGAUCA | -0.712 ± 0.13 | -0.359 ± 0.12
GCGAAGCAAUAUUACGGCUU | -2.39 ± 0.36 | –
CCUAAGCAAUAUUACGCGUA | -1.88 ± 0.25 | -2.19 ± 0.33
UACAAGCAAUAUUACGUCUC | -1.68 ± 0.1 | -2.24 ± 0.17
UCGAAGCAAUAUUACGACUU | -1.14 ± 0.21 | -2.8 ± 0.23
GGUAAGCAAUAUUACGACCA | -1.47 ± 0.17 | -0.643 ± 0.21
UCCGAGCAAUAUUACGAUCC | – | -0.617 ± 0.39
AGUUAGCAAUAUUACGCGAG | -2.52 ± 0.22 | -1.52 ± 0.21
AUCCAGCAAUAUUACGGGGA | -1.4 ± 0.11 | -1.71 ± 0.14
GGAAAGCAAUAUUACGGCGC | -0.392 ± 0.16 | 0.131 ± 0.21
GAAGAGCAAUAUUACGUUCG | -1.52 ± 0.11 | -0.987 ± 0.14
UUGGAGCAAUAUUACGCAGA | -2.13 ± 0.33 | -1.13 ± 0.16

Sequence | self-splicing fitness (ln) (30 °C) | self-splicing fitness (ln) (37 °C)
CCGGAGCAAUAUUACGAUGA | -2.7 ± 0.23 | -1.37 ± 0.23
UGACAGCAAUAUUACGGAUG | -0.91 ± 0.054 | -0.91 ± 0.075
AGAGAGCAAUAUUACGAAUC | -3.68 ± 0.47 | -2.06 ± 0.37
AAUCAGCAAUAUUACGACUA | 0.113 ± 0.14 | -0.783 ± 0.12
UAAGAGCAAUAUUACGACAA | -3.57 ± 0.43 | -1.79 ± 0.29
GUCAAGCAAUAUUACGAACA | -2.25 ± 0.22 | -1.24 ± 0.19
UGUGAGCAAUAUUACGACGA | -0.898 ± 0.14 | 0.278 ± 0.14
GUAAAGCAAUAUUACGAGGC | -2.91 ± 0.18 | -2.44 ± 0.24
AGCGAGCAAUAUUACGGGGU | -3.54 ± 0.22 | -1.59 ± 0.19
UUUGAGCAAUAUUACGUUCC | -3.99 ± 0.39 | –
UCACAGCAAUAUUACGUCCA | -0.951 ± 0.14 | -0.533 ± 0.14
CCAGAGCAAUAUUACGUACU | – | -1.97 ± 0.18
GAAUAGCAAUAUUACGUAAA | -1.94 ± 0.13 | -2.03 ± 0.14
GUCGAGCAAUAUUACGCCGU | -1.32 ± 0.3 | -0.299 ± 0.38
AUAAAGCAAUAUUACGAGGA | -3.28 ± 0.23 | -1.74 ± 0.19
AGGUAGCAAUAUUACGGUUU | -0.613 ± 0.012 | -0.252 ± 0.033
GGUUAGCAAUAUUACGGCUG | -0.585 ± 0.16 | 0.214 ± 0.28
UGGAAGCAAUAUUACGUCAG | -0.777 ± 0.12 | -0.119 ± 0.16
GGGCAGCAAUAUUACGAGUA | -2.78 ± 0.42 | -2.53 ± 0.33
UAAGAGCAAUAUUACGCAGG | -4.39 ± 0.36 | -2.2 ± 0.2
ACGGAGCAAUAUUACGCACU | -3.4 ± 0.34 | -1.32 ± 0.23
UGGUAGCAAUAUUACGACAU | -1.39 ± 0.015 | -0.583 ± 0.034
UACAAGCAAUAUUACGUGUC | -3.91 ± 0.14 | -1.15 ± 0.094
GGUUAGCAAUAUUACGUCUU | -0.107 ± 0.093 | 0.227 ± 0.11
